Measured values: the supplement of paper PMC10724198
± gives the standard deviation of the averaged measurements.

Legend:
[1] = tested on: Saccharomyces cerevisiae; assay: protein stability index of tFT-peptide fusion (C-terminal peptide) (PSI (0-1 scale)); higher = more stable (slower turnover)
Description: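 MPS profiling in S. cerevisiae of the tFT-X12 degron library: putative degron peptides plus stable controls, 12 aa, fused to the C-terminus of a sfGFP-mCherry timer. Cells are FACS-sorted into 8 mCherry/sfGFP bins and deep-sequenced. PSI runs from 0 (unstable) to 1 (stable). Backgrounds are wild type, das1Δ and doa10Δ at 30 °C, and wild type, das1Δ, cdc34-1 and cdc53-1 at 37 °C; 2-3 technical replicates each.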

[2] = tested on: Saccharomyces cerevisiae; assay: as above; conditions: genetic background: wild type; temperature: 30 C
[3] = genetic background: cdc34-1, temperature: 37 C
[4] = genetic background: cdc53-1, temperature: 37 C
[5] = genetic background: das1 deletion, temperature: 30 C
[6] = genetic background: das1 deletion, temperature: 37 C
[7] = genetic background: doa10 deletion, temperature: 30 C
[8] = genetic background: wild type, temperature: 30 C
[9] = genetic background: wild type, temperature: 37 C
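Further: PSI is a weighted mean of sequencing reads over stability bins, variants kept only with over 10 reads, mCherry proximal and sfGFP distal, peptide attached via GGGS linker.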

Sequence	protein stability index [1, 3]	protein stability index [1, 4]	protein stability index [1, 5]	protein stability index [1, 6]	protein stability index [1, 7]	protein stability index [1, 8]	protein stability index [1, 9]	protein stability index [2]
SPAIRAILAPAG	0.476 ± 0.059	0.504 ± 0.013	0.404 ± 0.021	0.546 ± 0.0073	0.402 ± 0.014	0.43 ± 0.036	0.532 ± 0.0079	0.445 ± 0.034
SPLASLRFWCFC	0.68 ± 0.059	0.768 ± 0.0088	0.6502 ± 0.0037	0.778 ± 0.018	0.335 ± 0.01	0.349 ± 0.028	0.592 ± 0.024	0.437 ± 0.015
SPPPLFLIVLHL	0.495 ± 0.0063	0.562 ± 0.028	0.446 ± 0.021	0.639 ± 0.012	0.4 ± 0.021	0.371 ± 0.048	0.52 ± 0.018	0.4283 ± 0.0032
SRCLALVICYRV	0.539 ± 0.041	0.582 ± 0.031	0.439 ± 0.021	0.5979 ± 0.0043	0.152 ± 0.016	0.185 ± 0.024	0.3 ± 0.0041	0.265 ± 0.011
SRGKMTIVSNQI	0.6525 ± 0.00094	0.734 ± 0.011	0.652 ± 0.021	0.7389 ± 0.0072	0.642 ± 0.011	0.669 ± 0.016	0.704 ± 0.028	0.574 ± 0.15
SRGLVPMANRYC	0.659 ± 0.07	0.7383 ± 0.0028	0.656 ± 0.03	0.741 ± 0.018	0.142 ± 0.0075	0.16 ± 0.02	0.42 ± 0.014	0.298 ± 0.045
SRPGRWRLYYVS	0.6867 ± 0.0067	0.802 ± 0.016	0.679 ± 0.0079	0.758 ± 0.011	0.38 ± 0.023	0.383 ± 0.022	0.54 ± 0.0037	0.401 ± 0.098
SRSVLLCFCWLC	0.356 ± 0.055	0.4492 ± 0.0017	0.411 ± 0.038	0.5256 ± 0.0042	0.27 ± 0.0089	0.264 ± 0.014	0.3461 ± 0.00068	0.347 ± 0.011
SVFCSLFLFLFY	0.477 ± 0.025	0.5013 ± 0.0034	0.4 ± 0.032	0.5568 ± 0.0013	0.414 ± 0.026	0.388 ± 0.01	0.517 ± 0.026	0.422 ± 0.037
SVGCCLLCFFVL	0.523 ± 0.012	0.563 ± 0.012	0.41 ± 0.03	0.5645 ± 0.0043	0.339 ± 0.029	0.351 ± 0.029	0.5031 ± 0.0027	0.425 ± 0.028
SWMSQFSILLTA	0.0938 ± 0.037	0.122 ± 0.0092	0.188 ± 0.021	0.23 ± 0.0046	0.1535 ± 0.00097	0.167 ± 0.031	0.199 ± 0.04	0.285 ± 0.043
SYVLLQSYVSLV	0.566 ± 0.017	0.623 ± 0.016	0.474 ± 0.0091	0.643 ± 0.016	0.318 ± 0.016	0.352 ± 0.029	0.613 ± 0.083	0.451 ± 0.021
TCVTLRYRLTFE	0.638 ± 0.11	0.666 ± 0.027	0.564 ± 0.022	0.667 ± 0.043	0.585 ± 0.04	0.522 ± 0.025	0.621 ± 0.02	0.508 ± 0.11
TFLFPLPFLFFI	0.0467 ± 0.0054	0.0387 ± 0.0025	0.102 ± 0.019	0.119 ± 0.03	0.29 ± 0.014	0.0685 ± 0.02	0.101 ± 0.0099	0.0963 ± 0.016
TFRPWPLHILAL	0.195 ± 0.0033	0.219 ± 0.029	0.216 ± 0.038	0.325 ± 0.0089	0.15 ± 0.0036	0.166 ± 0.026	0.201 ± 0.019	0.257 ± 0.029
